Measured values: patent US20210324054A1

Molecular target: DN-IV quality control recombinant protein (produced by the company) (dengue virus)
Assay: BLI, antibody on AMC sensor

Binder | Kd | koff | kon
Mutation 1-43 (antibody, V domains shown) VH: EVQLQQPGPELVKPGASVKMSCKASGYTFTSSVIHWVRQKPGQGLEWIGYMNPYNDGIKYNEKFIGKAILTSDKSSSTAYMQLSSLTSEDSAVYYCTKEGLFYVMDYWGQGTSVTVSS VL: QIVLTQSPAIMSASPGEKVTMTCSATSSLSYMHWYQQKSGTSPKRWIYDTSKLASGVPVRFSGSGSGTSYSLTISSMEAEDAATYFCQYWRSDLPTFGAGTKLELKR | 0.624 nM | 0.000256 s⁻¹ | 410000 M⁻¹ s⁻¹
WT 1-14 (antibody, V domains shown) VH: EVQLQQPGPELVKPGASVKMSCKASGYTVTSSVIHWVRQKPGQGLEWIGYMNAYNDGLKYNDKFIGKAILTSDKSSSTAYMQLSSLTSEDSAVYYCTREGLFYVFDYWGQGTSVTVSS VL: QIVLTQSPAIMSASPGEKVTMTCSGTSSLSYMHWYQQKSGTSPKRWIYDSSKLASPVPVRFSGSGSGTSYSLTISSMEAEDAATYFCQWWRSVLPTFGAGTKLELKR | 45.6 nM | 0.000188 s⁻¹ | 4120 M⁻¹ s⁻¹
WT 1-11 (antibody, V domains shown) VH: EVQLQQPGPELVKPGASVKMSCKASGYTVTSTVIHWVRQKPGQGLEWIGYMNAYNDGIKYNDKFIGKAILTSDKSSSTAYMQLSSLTSEDSAVYYCTREGLFYVMDYWGQGTSVTVSS VL: QIVLTQSPAIMSASPGEKVTMTCSGTSSISYMHWYQQKSGTSPKRWIYDTSKLASPVPVRFSGSGSGTSYSLTISSMEAEDAATYFCQYWRSVLPTFGAGTKLELKR | 57.1 nM | 0.000244 s⁻¹ | 4270 M⁻¹ s⁻¹
Mutation 1-48 (antibody, V domains shown) VH: EVQLQQPGPELVKPGASVKMSCKASGYTFTSTVIHWVRQKPGQGLEWIGYMNPYNDGLKYNEKFIGKAILTSDKSSSTAYMQLSSLTSEDSAVYYCTKEGLFYVMDYWGQGTSVTVSS VL: QIVLTQSPAIMSASPGEKVTMTCSATSSLSYMHWYQQKSGTSPKRWIYDSSKLASGVPVRFSGSGSGTSYSLTISSMEAEDAATYFCQWWRSDLPTFGAGTKLELKR | 0.665 nM | 0.000248 s⁻¹ | 373000 M⁻¹ s⁻¹
Mutation 1-44 (antibody, V domains shown) VH: EVQLQQPGPELVKPGASVKMSCKASGYTFTSYVIHWVRQKPGQGLEWIGYMNPYNDGLKYNEKFIGKAILTSDKSSSTAYMQLSSLTSEDSAVYYCTREGLFYVFDYWGQGTSVTVSS VL: QIVLTQSPAIMSASPGEKVTMTCSATSSVSYMHWYQQKSGTSPKRWIYDSSKLASGVPVRFSGSGSGTSYSLTISSMEAEDAATYFCQYWRSDLPTFGAGTKLELKR | 2.63 nM | 0.00011 s⁻¹ | 41800 M⁻¹ s⁻¹
Mutation 1-47 (antibody, V domains shown) VH: EVQLQQPGPELVKPGASVKMSCKASGYTFTSYVIHWVRQKPGQGLEWIGYMNPYNDGIKYNEKFIGKAILTSDKSSSTAYMQLSSLTSEDSAVYYCTREGLFYVFDYWGQGTSVTVSS VL: QIVLTQSPAIMSASPGEKVTMTCSATSSISYMHWYQQKSGTSPKRWIYDSSKLASGVPVRFSGSGSGTSYSLTISSMEAEDAATYFCQYWRSDLPTFGAGTKLELKR | 0.57 nM | 0.000211 s⁻¹ | 370000 M⁻¹ s⁻¹
Mutation 1-49 (antibody, V domains shown) VH: EVQLQQPGPELVKPGASVKMSCKASGYTFTSSVIHWVRQKPGQGLEWIGYMNPYNDGIKYNEKFIGKAILTSDKSSSTAYMQLSSLTSEDSAVYYCTREGLFYVFDYWGQGTSVTVSS VL: QIVLTQSPAIMSASPGEKVTMTCSATSSVSYMHWYQQKSGTSPKRWIYDTSKLASGVPVRFSGSGSGTSYSLTISSMEAEDAATYFCQQWRSDLPTFGAGTKLELKR | 0.765 nM | 0.000299 s⁻¹ | 391000 M⁻¹ s⁻¹
Mutation 1-51 (antibody, V domains shown) VH: EVQLQQPGPELVKPGASVKMSCKASGYTFTSTVIHWVRQKPGQGLEWIGYMNPYNDGLKYNEKFIGKAILTSDKSSSTAYMQLSSLTSEDSAVYYCTREGLFYVMDYWGQGTSVTVSS VL: QIVLTQSPAIMSASPGEKVTMTCSATSSISYMHWYQQKSGTSPKRWIYDSSKLASGVPVRFSGSGSGTSYSLTISSMEAEDAATYFCQWWRSDLPTFGAGTKLELKR | 0.5 nM | 0.000201 s⁻¹ | 402000 M⁻¹ s⁻¹
Mutation 1-46 (antibody, V domains shown) VH: EVQLQQPGPELVKPGASVKMSCKASGYTFTSSVIHWVRQKPGQGLEWIGYMNPYNDGLKYNEKFIGKAILTSDKSSSTAYMQLSSLTSEDSAVYYCTREGLFYVMDYWGQGTSVTVSS VL: QIVLTQSPAIMSASPGEKVTMTCSATSSVSYMHWYQQKSGTSPKRWIYDTSKLASGVPVRFSGSGSGTSYSLTISSMEAEDAATYFCQQWRSDLPTFGAGTKLELKR | 0.569 nM | 0.000222 s⁻¹ | 390000 M⁻¹ s⁻¹

Results, then the binder that gave them:

Kd | koff | kon | Binder
3.02 nM | 0.000124 s⁻¹ | 41000 M⁻¹ s⁻¹ | Mutation 1-52 (antibody, V domains shown) VH: EVQLQQPGPELVKPGASVKMSCKASGYTFTSSVIHWVRQKPGQGLEWIGYMNPYNDGLKYNEKFIGKAILTSDKSSSTAYMQLSSLTSEDSAVYYCTKEGLFYVFDYWGQGTSVTVSS VL: QIVLTQSPAIMSASPGEKVTMTCSATSSLSYMHWYQQKSGTSPKRWIYDSSKLASGVPVRFSGSGSGTSYSLTISSMEAEDAATYFCQQWRSDLPTFGAGTKLELKR
57.8 nM | 0.000264 s⁻¹ | 4570 M⁻¹ s⁻¹ | WT 1-5 (antibody, V domains shown) VH: EVQLQQPGPELVKPGASVKMSCKASGYTVTSYVIHWVRQKPGQGLEWIGYMNAYNDGLKYNDKFIGKAILTSDKSSSTAYMQLSSLTSEDSAVYYCTKEGLFYVFDYWGQGTSVTVSS VL: QIVLTQSPAIMSASPGEKVTMTCSGTSSVSYMHWYQQKSGTSPKRWIYDSSKLASPVPVRFSGSGSGTSYSLTISSMEAEDAATYFCQWWRSVLPTFGAGTKLELKR
4.22 nM | 0.000174 s⁻¹ | 41200 M⁻¹ s⁻¹ | Mutation 1-45 (antibody, V domains shown) VH: EVQLQQPGPELVKPGASVKMSCKASGYTFTSTVIHWVRQKPGQGLEWIGYMNPYNDGIKYNEKFIGKAILTSDKSSSTAYMQLSSLTSEDSAVYYCTKEGLFYVFDYWGQGTSVTVSS VL: QIVLTQSPAIMSASPGEKVTMTCSATSSLSYMHWYQQKSGTSPKRWIYDSSKLASGVPVRFSGSGSGTSYSLTISSMEAEDAATYFCQWWRSDLPTFGAGTKLELKR
2.71 nM | 0.000115 s⁻¹ | 42500 M⁻¹ s⁻¹ | Mutation 1-53 (antibody, V domains shown) VH: EVQLQQPGPELVKPGASVKMSCKASGYTFTSYVIHWVRQKPGQGLEWIGYMNPYNDGIKYNEKFIGKAILTSDKSSSTAYMQLSSLTSEDSAVYYCTREGLFYVMDYWGQGTSVTVSS VL: QIVLTQSPAIMSASPGEKVTMTCSATSSVSYMHWYQQKSGTSPKRWIYDTSKLASGVPVRFSGSGSGTSYSLTISSMEAEDAATYFCQYWRSDLPTFGAGTKLELKR
3.79 nM | 0.000167 s⁻¹ | 44100 M⁻¹ s⁻¹ | Mutation 1-50 (antibody, V domains shown) VH: EVQLQQPGPELVKPGASVKMSCKASGYTFTSYVIHWVRQKPGQGLEWIGYMNPYNDGLKYNEKFIGKAILTSDKSSSTAYMQLSSLTSEDSAVYYCTKEGLFYVFDYWGQGTSVTVSS VL: QIVLTQSPAIMSASPGEKVTMTCSATSSISYMHWYQQKSGTSPKRWIYDTSKLASGVPVRFSGSGSGTSYSLTISSMEAEDAATYFCQYWRSDLPTFGAGTKLELKR
